# Data taken from US20240400690A1 (BIO THERA SOLUTIONS, published 2024).
# T1: B7-H3 on tumour cells (MDA-MB-468 cells, N87 cells) (UniProt Q5ZPR3 29-534, limits assumed)
# T1 construct: whole, on cells
# T1 sequence (looked up): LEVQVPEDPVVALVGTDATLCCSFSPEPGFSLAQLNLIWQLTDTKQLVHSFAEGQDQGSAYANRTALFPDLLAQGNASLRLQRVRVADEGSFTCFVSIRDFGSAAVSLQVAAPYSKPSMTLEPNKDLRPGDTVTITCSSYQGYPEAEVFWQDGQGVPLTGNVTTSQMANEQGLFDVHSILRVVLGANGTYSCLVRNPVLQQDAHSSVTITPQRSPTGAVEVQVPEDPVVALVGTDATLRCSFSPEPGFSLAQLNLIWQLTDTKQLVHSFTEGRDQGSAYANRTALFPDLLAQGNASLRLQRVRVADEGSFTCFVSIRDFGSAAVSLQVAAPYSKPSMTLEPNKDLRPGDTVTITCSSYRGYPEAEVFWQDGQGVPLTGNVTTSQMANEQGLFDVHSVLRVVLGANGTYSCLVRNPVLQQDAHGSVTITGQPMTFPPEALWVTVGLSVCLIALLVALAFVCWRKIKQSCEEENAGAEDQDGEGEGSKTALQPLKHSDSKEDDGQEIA
# T2: mouse B7-H3 (SinoBiological, 50973-M08H) (mouse, UniProt Q8VE98 29-244)
# T2 construct: Bought reagent
# T2 sequence (looked up): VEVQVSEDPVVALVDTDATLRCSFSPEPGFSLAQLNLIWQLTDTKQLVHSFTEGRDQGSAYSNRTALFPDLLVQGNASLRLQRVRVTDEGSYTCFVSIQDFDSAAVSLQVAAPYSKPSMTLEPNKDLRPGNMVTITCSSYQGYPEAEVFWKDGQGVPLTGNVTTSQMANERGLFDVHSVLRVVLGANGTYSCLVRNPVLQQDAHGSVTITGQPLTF
# T3: Lag3 (on Lag3-CHO cells) (UniProt P18627 23-525, limits assumed)
# T3 construct: whole, on cells
# T3 sequence (looked up): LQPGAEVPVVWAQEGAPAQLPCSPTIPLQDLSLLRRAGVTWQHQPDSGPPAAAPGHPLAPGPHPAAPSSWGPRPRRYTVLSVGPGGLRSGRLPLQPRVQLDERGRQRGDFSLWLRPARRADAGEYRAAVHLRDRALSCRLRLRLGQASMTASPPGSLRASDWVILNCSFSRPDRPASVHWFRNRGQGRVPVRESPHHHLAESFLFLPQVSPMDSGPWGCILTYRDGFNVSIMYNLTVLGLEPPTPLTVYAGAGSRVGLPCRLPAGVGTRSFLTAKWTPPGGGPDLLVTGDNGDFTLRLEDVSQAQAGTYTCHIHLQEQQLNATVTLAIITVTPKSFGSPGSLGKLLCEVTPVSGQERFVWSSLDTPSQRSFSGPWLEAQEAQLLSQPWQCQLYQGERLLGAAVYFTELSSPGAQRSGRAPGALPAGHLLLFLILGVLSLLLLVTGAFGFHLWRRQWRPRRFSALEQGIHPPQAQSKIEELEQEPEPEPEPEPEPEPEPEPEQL
# T4: Tim3 (on Tim3-CHO cells) (UniProt Q8TDQ0 22-301, limits assumed)
# T4 construct: whole, on cells
# T4 sequence (looked up): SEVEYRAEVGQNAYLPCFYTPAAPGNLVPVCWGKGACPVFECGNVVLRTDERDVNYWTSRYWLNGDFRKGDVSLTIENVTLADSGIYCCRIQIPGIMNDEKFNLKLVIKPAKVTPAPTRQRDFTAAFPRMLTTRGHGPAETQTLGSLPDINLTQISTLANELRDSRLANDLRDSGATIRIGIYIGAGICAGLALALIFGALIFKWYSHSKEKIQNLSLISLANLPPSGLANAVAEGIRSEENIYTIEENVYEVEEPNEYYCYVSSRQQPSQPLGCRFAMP
# T5: VISTA (on VISTA-CHO cells) (UniProt Q9H7M9 33-311, limits assumed)
# T5 construct: whole, on cells
# T5 sequence (looked up): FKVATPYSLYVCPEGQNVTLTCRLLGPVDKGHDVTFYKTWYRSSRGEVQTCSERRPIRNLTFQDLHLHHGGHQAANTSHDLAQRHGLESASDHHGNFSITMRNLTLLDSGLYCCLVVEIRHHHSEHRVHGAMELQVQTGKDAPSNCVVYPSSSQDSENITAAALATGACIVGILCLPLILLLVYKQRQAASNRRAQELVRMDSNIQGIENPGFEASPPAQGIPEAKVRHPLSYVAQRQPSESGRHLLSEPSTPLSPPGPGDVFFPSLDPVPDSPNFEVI
# Assays:
# [1] = target: T1, B7-H3 on tumour cells (MDA-MB-468 …); test: flow cytometry on MDA-MB-468 cells, PE goat anti-human IgG Fc secondary; blank 0.9% in the positive gate
# Experimental: MDA-MB-468 cells in logarithmic phase were collected and centrifuged at 1500 rpm for 5 min, and the supernatant was removed. The cells were resuspended in 1×PBS and centrifuged at 1500 rpm for 5 min, and the supernatant was removed, and then the procedure was repeated once. MDA-MB-468 cells were added to a V-bottom 96-well plate at 50 μL/well (200,000 cells) and centrifuged at 1500 rpm for 5 min, and PBS was discarded; the humanized antibody diluted in gradient (initial concentration of 100 nM, 3-fold gradient dilution, 1×PBS as the vehicle) was added at 100 μL/well; the cells were resuspended, and incubated on ice for 1 h; after the incubation was completed, the cells were centrifuged at 2000 rpm for 5 min, and the supernatant was removed; the cells were resuspended in 1×PBS added at 200 µL/well and centrifuged again and the supernatant was removed, and the procedure was repeated twice; a PE-labeled goat anti-human IgG Fc secondary antibody (Invitrogen, cat #12-4998-82, diluted with 1×PBS at 1:500) was added at 100 μL/well; the cells were resuspended, and incubated for 30 min on ice in the absence of light; after the incubation was completed, the cells were centrifuged at 2000 rpm for 5 min, and the supernatant was removed; the cells were resuspended in 1×PBS added at 200 μL/well and centrifuged again and the supernatant was removed, and the procedure was repeated twice; 1×PBS was then added at 200 μL/well to resuspend the cells; the detection was performed with a cytoflex flow cytometer (Beckman).
# [2] = target: T2, mouse B7-H3 (SinoBiological, 50973-M08H); test: ELISA, antigen coated at 2 µg/mL; Table 13 prints EC50 as NA
# Experimental: The day before the experiment, the target antigens cynomolgus monkey B7-H3 (novoprotein CA61), mouse B7-H3 (SinoBiological, 50973-M08H) and hB7-H3-his were each diluted to 2 μg/mL with 1×PBS and added to a ELISA plate (96-well plate) at 100 μL/well (two rows for each antigen), and the wells were coated overnight at 4° C.
# Lag3 (on Lag3-CHO cells) = target: T3, Lag3 (on Lag3-CHO cells); test: flow cytometry on Lag3-CHO cells, PE goat anti-human IgG Fc secondary; blank 0.5% in P3
# Experimental: (§1) Cells (VISTA-CHO cells, Tim3-CHO cells or Lag3-CHO cells) in logarithmic phase were collected and centrifuged at 1500 rpm for 5 min, and the supernatant was removed. The cells were resuspended in 1×PBS and centrifuged at 1500 rpm for 5 min, and the supernatant was removed, and then the procedure was repeated once. […]
# Tim3 (on Tim3-CHO cells) = target: T4, Tim3 (on Tim3-CHO cells); test: flow cytometry on Tim3-CHO cells, PE goat anti-human IgG Fc secondary; blank 0.2% in P3
# Experimental: as §1
# [3] = target: T5, VISTA (on VISTA-CHO cells); test: flow cytometry on VISTA-CHO cells, PE goat anti-human IgG Fc secondary; blank 0.1% in P3
# Experimental: as §1
Binder,% of cells in positive gate V1-R at 0.411 nM [1] [%],% of cells in positive gate V1-R at 1.23 nM [1] [%],% of cells in positive gate V1-R at 11.11 nM [1] [%],% of cells in positive gate V1-R at 33.33 nM [1] [%],% of cells in positive gate V1-R at 3.7 nM [1] [%],% of cells in positive gate V1-R at 100 nM [1] [%],binding result [2],% of cells in gate P3 at 100 nM (Lag3 (on Lag3-CHO cells)) [%],% of cells in gate P3 at 100 nM (Tim3 (on Tim3-CHO cells)) [%],% of cells in gate P3 at 100 nM [3] [%]
"antibody V2 (antibody, human IgG1, kappa, V domains shown, Humanized from chimeric antibody M1; expressed in HEK293F cells; also called humanized antibody V2) VH: EVQLVQSGAEVKKSGESLKISCKASGYTFTDYDINWVRQMPGKGLEWIGWIFPGDDTTKYNEKFKGQVTLSADKSTNTAYMQWSSLKASDTAMYYCARSPSFDYWGQGTLVTVSS VL: QIVLTQSPGTLSLSPGERATLSCSASSTIGFMYWYQQKPGQAPRRWIYDTSKLASGVPDRFSVSGSGTDYTLTISRLEPEDFAVYYCHQRSSYPTFGQGTKVEIKR",1.2,1.3,97.8,99.7,–,–,–,–,–,–
"antibody V1 (antibody, human IgG1, kappa, V domains shown, Humanized from chimeric antibody M1; expressed in HEK293F cells; also called humanized antibody V1) VH: EVQLVQSGAEVKKSGESLKISCKASGYTFTDYDINWVRQMPGKGLEWMGWIFPGDDTTKYNEKFKGQVTISADKSTNTAYLQWSSLKASDTAMYYCARSPSFDYWGQGTLVTVSS VL: QIVLTQSPGTLSLSPGERATLSCSASSTIGFMYWYQQKPGQAPRRWIYDTSKLASGVPDRFSVSGSGTDYTLTISRLEPEDFAVYYCHQRSSYPTFGQGTKVEIKR",1.4,8.6,99.5,99.6,92.7,99.7,–,–,–,–
"antibody M1 (antibody, human IgG1, kappa, V domains shown, Chimeric antibody, murine variable regions on the IgG1 constant region; expressed in HEK293F cells; also called chimeric antibody M1) VH: QVQLQQSGPELVKPGASVRISCKASGYTFTDYDINWVQQRPGQGLEWIGWIFPGDDTTKYNEKFKGRATLTADKSSNTAYMQLNGLTSENSAVYFCARSPSFDYWGQGTLVTVSS VL: QIVLTQSPAIMSASPGERVTMTCSASSTIGFMYWYQQKPGTSPKRWIYDTSKLASGVPARFSVSGSGTSYSLTISSMEAEDAATYYCHQRSSYPTFGGGTKLEIKR",26.5,93.1,99.5,99.7,98.7,99.7,–,0.9,0.8,0.6
"antibody V5 (antibody, human IgG1, kappa, V domains shown, Humanized from chimeric antibody M1; expressed in HEK293F cells; also called humanized antibody V5) VH: QVQLVQSGAEVKKPGASVKVSCKASGYTFTDYDINWVRQAPGQRLEWIGWIFPGDDTTKYNEKFKGRATLTADKSASTAYMELSSLRSEDTAVYYCARSPSFDYWGQGTLVTVSS VL: QIVLTQSPSSLSASVGDRVTITCSASSTIGFMYWYQQKPGKAPKRWIYDTSKLASGVPSRFSVSGSGTDYTLTISSLQPEDFATYYCHQRSSYPTFGQGTKVEIKR",31.6,73.5,99.3,99.6,92.6,99.7,–,–,–,–

# Results, then the binder that gave them:
% of cells in positive gate V1-R at 0.411 nM [1] [%],% of cells in positive gate V1-R at 1.23 nM [1] [%],% of cells in positive gate V1-R at 11.11 nM [1] [%],% of cells in positive gate V1-R at 33.33 nM [1] [%],% of cells in positive gate V1-R at 3.7 nM [1] [%],% of cells in positive gate V1-R at 100 nM [1] [%],binding result [2],% of cells in gate P3 at 100 nM (Lag3 (on Lag3-CHO cells)) [%],% of cells in gate P3 at 100 nM (Tim3 (on Tim3-CHO cells)) [%],% of cells in gate P3 at 100 nM [3] [%],Binder
36.8,86.4,97.2,98.9,94,99.6,no binding,–,–,–,"antibody V3 (antibody, human IgG1, kappa, V domains shown, Humanized from chimeric antibody M1; expressed in HEK293F cells; also called humanized antibody V3) VH: EVQLVQSGAEVKKSGESLKISCKASGYTFTDYDINWVRQMPGKGLEWIGWIFPGDDTTKYNEKFKGQVTLSADKSTNTAYMQWSSLKASDTAMYYCARSPSFDYWGQGTLVTVSS VL: QIVLTQSPGTLSLSPGERATLSCSASSTIGFMYWYQQKPGQAPRRWIYDTSKLASGVPDRFSGSGSGTDYTLTISRLEPEDFAVYYCHQRSSYPTFGQGTKVEIKR"
1.1,4,97.2,98.8,–,99.3,–,0.3,0.4,0.2,"control antibody M30-H1-L4 (antibody, human IgG1, kappa, V domains shown, Control anti-B7-H3 antibody; also called HIL4) VH: QVQLVQSGAEVKKPGSSVKVSCKASGYTFTNYVMHWVRQAPGQGLEWMGYINPYNDDVKYNEKFKGRVTITADESTSTAYMELSSLRSEDTAVYYCARWGYYGSPLYYFDYWGQGTLVTVSS VL: EIVLTQSPATLSLSPGERATLSCRASSRLIYMHWYQQKPGQAPRPLIYATSNLASGIPARFSGSGSGTDFTLTISSLEPEDFAVYYCQQWNSNPPTFGQGTKVEIKR"
